# B1: Vacuolar protein sorting-associated protein 33A (Homo sapiens), Q96AX1 (parent)
# chain: MAAHLSYGRVNLNVLREAVRRELREFLDKCAGSKAIVWDEYLTGPFGLIAQYSLLKEHEVEKMFTLKGNRLPAADVKNIIFFVRPRLELMDIIAENVLSEDRRGPTRDFHILFVPRRSLLCEQRLKDLGVLGSFIHREEYSLDLIPFDGDLLSMESEGAFKECYLEGDQTSLYHAAKGLMTLQALYGTIPQIFGKGECARQVANMMIRMKREFTGSQNSIFPVFDNLLLLDRNVDLLTPLATQLTYEGLIDEIYGIQNSYVKLPPEKFAPKKQGDGGKDLPTEAKKLQLNSAEELYAEIRDKNFNAVGSVLSKKAKIISAAFEERHNAKTVGEIKQFVSQLPHMQAARGSLANHTSIAELIKDVTTSEDFFDKLTVEQEFMSGIDTDKVNNYIEDCIAQKHSLIKVLRLVCLQSVCNSGLKQKVLDYYKREILQTYGYEHILTLHNLEKAGLLKPQTGGRNNYPTIRKTLRLWMDDVNEQNPTDISYVYSGYAPLSVRLAQLLSRPGWRSIEEVLRILPGPHFEERQPLPTGLQKKRQPGENRVTLIFFLGGVTFAEIAALRFLSQLEDGGTEYVIATTKLMNGTSWIEALMEKPF
# partner: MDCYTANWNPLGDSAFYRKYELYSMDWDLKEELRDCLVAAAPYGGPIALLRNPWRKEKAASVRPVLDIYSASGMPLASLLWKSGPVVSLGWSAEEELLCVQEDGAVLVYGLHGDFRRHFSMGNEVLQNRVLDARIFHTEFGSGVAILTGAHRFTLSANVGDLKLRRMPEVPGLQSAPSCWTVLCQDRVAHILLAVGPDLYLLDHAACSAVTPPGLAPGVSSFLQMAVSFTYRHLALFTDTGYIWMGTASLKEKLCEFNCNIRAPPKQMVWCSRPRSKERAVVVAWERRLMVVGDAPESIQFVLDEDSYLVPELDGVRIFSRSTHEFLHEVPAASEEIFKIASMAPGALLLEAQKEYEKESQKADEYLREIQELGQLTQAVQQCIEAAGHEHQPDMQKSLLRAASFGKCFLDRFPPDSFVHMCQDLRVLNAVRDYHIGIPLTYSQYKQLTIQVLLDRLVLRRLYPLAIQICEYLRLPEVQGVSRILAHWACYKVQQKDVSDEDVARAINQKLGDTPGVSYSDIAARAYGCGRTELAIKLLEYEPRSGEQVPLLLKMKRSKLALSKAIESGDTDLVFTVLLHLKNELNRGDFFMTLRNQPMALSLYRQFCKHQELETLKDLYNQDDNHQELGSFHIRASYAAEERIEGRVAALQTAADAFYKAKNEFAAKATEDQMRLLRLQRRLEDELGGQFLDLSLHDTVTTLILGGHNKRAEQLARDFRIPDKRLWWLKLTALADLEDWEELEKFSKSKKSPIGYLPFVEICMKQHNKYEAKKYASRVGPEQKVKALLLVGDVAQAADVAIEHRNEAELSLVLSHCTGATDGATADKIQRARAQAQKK
# B2: Vacuolar protein sorting-associated protein 33B (Homo sapiens), Q9H267 (parent)
# chain: MAFPHRPDAPELPDFSMLKRLARDQLIYLLEQLPGKKDLFIEADLMSPLDRIANVSILKQHEVDKLYKVENKPALSSNEQLCFLVRPRIKNMRYIASLVNADKLAGRTRKYKVIFSPQKFYACEMVLEEEGIYGDVSCDEWAFSLLPLDVDLLSMELPEFFRDYFLEGDQRWINTVAQALHLLSTLYGPFPNCYGIGRCAKMAYELWRNLEEEEDGETKGRRPEIGHIFLLDRDVDFVTALCSQVVYEGLVDDTFRIKCGSVDFGPEVTSSDKSLKVLLNAEDKVFNEIRNEHFSNVFGFLSQKARNLQAQYDRRRGMDIKQMKNFVSQELKGLKQEHRLLSLHIGACESIMKKKTKQDFQELIKTEHALLEGFNIRESTSYIEEHIDRQVSPIESLRLMCLLSITENGLIPKDYRSLKTQYLQSYGPEHLLTFSNLRRAGLLTEQAPGDTLTAVESKVSKLVTDKAAGKITDAFSSLAKRSNFRAISKKLNLIPRVDGEYDLKVPRDMAYVFGGAYVPLSCRIIEQVLERRSWQGLDEVVRLLNCSDFAFTDMTKEDKASSESLRLILVVFLGGCTFSEISALRFLGREKGYRFIFLTTAVTNSARLMEAMSEVKA
# partner: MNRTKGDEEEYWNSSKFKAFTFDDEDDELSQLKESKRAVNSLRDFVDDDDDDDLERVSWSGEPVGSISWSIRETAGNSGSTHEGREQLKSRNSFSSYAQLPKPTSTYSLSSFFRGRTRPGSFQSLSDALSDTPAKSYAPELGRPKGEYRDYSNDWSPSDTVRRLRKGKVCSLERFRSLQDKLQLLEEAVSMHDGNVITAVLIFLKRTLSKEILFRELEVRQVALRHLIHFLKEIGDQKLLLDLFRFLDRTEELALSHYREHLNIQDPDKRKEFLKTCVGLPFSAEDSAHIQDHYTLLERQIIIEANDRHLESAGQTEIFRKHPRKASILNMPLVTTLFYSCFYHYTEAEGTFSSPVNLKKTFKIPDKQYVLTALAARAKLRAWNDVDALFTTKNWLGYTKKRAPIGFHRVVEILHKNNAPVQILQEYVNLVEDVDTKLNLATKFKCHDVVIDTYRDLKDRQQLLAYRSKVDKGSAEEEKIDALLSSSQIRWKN
# Variants of: B1
# Settings: with vps16_human VPS16, Q9H269
row,Variant,effect of a mutation on the interaction
1,MAAHLSYGRVNLNVLREAVRRELREFLDKCAGSKAIVWDEYLTGPFGLIAQYSLLKEHEVEKMFTLKGNRLPAADVKNIIFFVRPRLELMDIIAENVLSEDRRGPTRDFHILFVPRRSLLCEQRLKDLGVLGSFIHREEYSLDLIPFDGDLLSMESEGAFKECYLEGDQTSLYHAAKGLMTLQALYGTIPQIFGKGECARQVANMMIRMKREFTGSQNSIFPVFDNLLLLDRNVDLLTPLATQLTYEGLIDEIYGIQNSYVKLPPEKFAPKKQGDGGKDLPTEAKKLQLNSAEELYAEIRDKNFNAVGSVLSKKAKIISAAFEERHNAKTVGEIKQFVSQLPHMQAARGSLANHTSIAELIKDVTTSEDFFDKLTVEQEFMSGIDTDKVNNYIEDCIAQKHSLIKVLRLVCLQSVCNSGLKQKVLDYYKREILQTYGDEHKLTLHNLEKAGLLKPQTGGRNNYPTIRKTLRLWMDDVNEQNPTDISYVYSGYAPLSVRLAQLLSRPGWRSIEEVLRILPGPHFEERQPLPTGLQKKRQPGENRVTLIFFLGGVTFAEIAALRFLSQLEDGGTEYVIATTKLMNGTSWIEALMEKPF [Y438D;I441K],disrupting interaction strength

# Variants of: B2
# Settings: with spe39_human VIPAS39, Q9H9C1
row,Variant,effect of a mutation on the interaction
1,K419D;L431K,disrupting interaction strength
2,P428D;L431K,decreasing interaction strength

# — IntAct's records for PubMed 29778605
